This data set concerns the molecule itself. The data set is described as follows: SEC. In general terms: Size exclusion chromatography separates by hydrodynamic size, large species first.

B1: wild-type hamster PrP 121–231 (domain or fragment)
chain: not shown
As for B1, the stoichiometry N – broadly, the number of molecules, sites or subunits per partner or assembly – was 8.

Source of the values: paper PMC3651167 (PLoS ONE, 2013).
